Source: publication PMC7156724, “Potent BRD4 inhibitor suppresses cancer cell-macrophage interaction” (Nature Communications, 2020)
“And” between values parts separate entries of the source, which are not always exact repeats. Identical values can stand only once.

Columns and labels:
Format in all cases: cell-based, mouse
TAMs [1] = assay: Transwell co-culture of pretreated A2780 cells and TAMs with CSF1 or anti-CSF1R antibodies; conditions: 10 ng/ml CSF1
Experimental: (§1) Fig. 6 CSF1/CSF1R signaling is critical for the tumor inhibitory effects of NHWD-870 and CSF1 induced ovarian cancer growth depends on macrophages. a Number of TAMs after treatment with the indicated concentration of CSF1 for 48 h. Data are presented as mean ± SEM from three independent experiments. b–d Schematics of the experiments (b). A2780 cells (pre-treated with DMSO or 100 nM NHWD-870 for 48 h) were seeded into the top chamber (transwell size: 0.4 μm), and TAMs (Mac, 40,000 cells per 24-well) in medium with PBS or 10 ng/ml CSF1 (c), or 50 ng/ml IgG or anti-CSF1R antibodies (d), were seeded into the bottom chamber. Shown are quantification of TAMs (c, d). Data are presented as mean ± SEM from three independent experiments. e Representative western blot analysis of A2780 cells stably transfected with CSF1 or empty vector (EV). Selected from three independent experiments. f Schematics of the animal experiments using an orthotopic mouse OC model, established by intraperitoneally injecting 1 × 10^6 (g–j) or 2 × 10^6 (k–m) human A2780 cells overexpressing CSF1 or control into female recipient nude mice. Mice were then treated with/without liposomal clodronate (LC) for 45 days (g–j) or treated with/without NHWD-870 (PO, QD, 3 mg/kg) for 37 days (k–m). g Increased mouse body weight was measured at the indicated time points (day 0-45 after LC treatment). h–j Net tumor weight (h), ascitic fluid volumes (i) tumor implantations in peritoneum, omentum and pevic cavity (j) were measured at day 45 from LC treatment. k–m Net tumor weight (k), ascitic fluid volumes (l) tumor implantations in peritoneum, omentum and pevic cavity (m) were measured at day 37 after NHWD-870 treatment. For g–m, data are presented as mean ± SEM from five different mice. p values were calculated using two-tailed, unpaired t tests in this figure. n.s, not significant; *p < 0.05; **p < 0.01; and ***p < 0.001. Source data are provided as a Source Data file.
CD45^+CD11b^+F4/80^+ TAMs were isolated from peritoneal metastasis of A2780 tumor-bearing mice and cultured in RPMI-1640 supplemented with 10% FBS, 1% penicillin/streptomycin, and 0–50 ng/ml CSF1 (R&D Systems) as indicated according to standard protocols. In the cancer cell-macrophage co-culture experiments, CSF1 was not added. In the transwell (Corning, pore size, 0.4 μm) co-culture experiments, tumor cells were placed into the upper chamber, and TAMs were seeded into the lower chamber.

[2] = system: PI3K/AKT1 and ERK phosphorylation; assay: Western blot of p-PI3K, p-AKT1 and p-ERK in TAMs
Experimental: Supplementary Figure 13. NHWD-870 inhibited CSF1/CSF1R signaling pathw ay to reduce TAM […]
TA M s ( 2 ×10^5 cells) (treated with or without 10 ng/ml CSF1 and 100 nM NHWD-870 for 48 h) were seeded into the 6-well bottom chamber, in the presence or absence of A2780 cells (pre-treated with or without 100 nM NHWD-870 for 48 h) seeded into the top chamber (transwell size: 0.4μm). Shown are schematics of the experiment and representative western blot analysis of the indicated proteins (a), and quantification of the relative levels of p-PI3K, p-AKT1 and p-ERK over their respective total protein (b). Data are presented as mean ± SEM from 3 independent experiments. p values were calculated using two-tailed, unpaired t tests. n.s, no significant; **, p<0.01; ***, p<0.001. Source data are provided as a Source Data file. […]
4. Protein extraction and w estern blot anal ysis. Freshly dissected unfixed tissue was homogenized in lysis buffer. The lysates were centrifuged at 13,000g for 10 minutes at 4°C. Supernatants were collected and determined with a Bradford Protein Assay kit (Bio-Rad, Hercules, CA). The cell lysates were subjected to SDS-PAGE followed by immunoblotting (Immobilon P; Millipore, Milford, MA) with specific antibodies followed by detection using an enhanced chemilumine scence kit (Amersham Life Science, Arlington Heights, IL). […]

TAMs [3] = assay: Ki67 FACS of TAMs induced by CSF1; conditions: CSF1 treatment
Experimental: Flow cytometry analyses were performed using antibodies listed in Supplementary Table 8. For cell surface markers, mouse TAM suspensions were stained with mouse APC-CD45, FITC-CD11b, PE-F4/80 or APC-F4/80, CD68, and PE-CD206 antibodies for 15 min on ice. For Ki67 staining, cells were fixed in 4% paraformaldehyde and stained with FITC-Ki67. Isotype matching antibody served as the negative control. Flow cytometry was performed on a FACSCalibur (BD Biosciences). Data were analyzed with BD CellQuest Pro software version 5.1.
Supplementary Figure 14. NHWD-870 and BRD4 deletion partially inhibite d prolifera tion of TAMs […]
(a) CD45+CD11b+F4/80 + TAMs in the orthotopic B16 melanoma model were harvested from tumors. Shown are representative FACS plots of TAMs. (b,c) Representative FACS plots (b) and quantification (c) of Ki67+ macrophages treated with 50 ng/ml CSF1, and DMSO or 25 or 50 nM NHWD-870. […]
TAMs induced by CSF1. (a-c) CD11b+F4/80+ macrophages in the orthotopic B16F10 melanoma model were harvested from tumor tissues. Shown are representative CD45+, CD11b+, F4/80+ FACS plots (a) and quantification of the percentage of Ki67+ cells after treatment with DMSO or NHWD-870 dependent on CSF1 stimulation (b,c). (d-g) FACS plots and quantification of the percentage of Ki67+ cells after CRISPR/Cas9-mediated BRD4 knockout (d,e) and c-MYC knockout (f,g) in CD11b+F4/80+ macrophages. CSF1 is added at the indicated concentration.
Please also see response to comment # 4 about our 2D assays, in which we used colony number to quantify the number of TAMs.
NHWD-870 treatment and the main differences are colony size.
6. For comparison purposes, it would be a good idea to compare the direct effect of NHWD-870 on in […]
marrow derived macrophage proliferation and gene expression in vitro). […]

TAMs [4] = assay: Number of TAMs after treatment with CSF1
Experimental: as §1, with “file. […]” for “file.”

[5] = CSF1 treatment, individual replicates, Ctrl about 1

B1: CSF1: macrophage colony-stimulating factor, purchased from R&D Systems (protein, UniProt P09603 33-554, looked up)
Macrophage colony-stimulating …: EEVSEYCSHMIGSGHLQSLQRLIDSQMETSCQITFEFVDQEQLKDPVCYLKKAFLLVQDIMEDTMRFRDNTPNAIAIVQLQELSLRLKSCFTKDYEEHDKACVRTFYETPLQLLEKVKNVFNETKNLLDKDWNIFSKNCNNSFAECSSQDVVTKPDCNCLYPKAIPSSDPASVSPHQPLAPSMAPVAGLTWEDSEGTEGSSLLPGEQPLHTVDPGSAKQRPPRSTCQSFEPPETPVVKDSTIGGSPQPRPSVGAFNPGMEDILDSAMGTNWVPEEASGEASEIPVPQGTELSPSRPGGGSMQTEPARPSNFLSASSPLPASAKGQQPADVTGTALPRVGPVRPTGQDWNHTPQKTDHPSALLRDPPEPGSPRISSLRPQGLSNPSTLSAQPQLSRSHSSGSVLPLGELEGRRSTRDRRSPAEPEGGPASEGAARPLPRFNSVPLTDTGHERQSEGSFSPQLQESVFHLLVPSVILVLLAVGGLLFYRWRRRSHQEPQRADSPLEQPEGSPLTQDDRQVELPV
rescue of TAM proliferation in co-culture with NHWD-870 pretreated A2780 cells (TAMs [1]): partially rescue the inhibitory effects of NHWD-870
PI3K/AKT1 and ERK phosphorylation in TAMs ([2]; 10 ng/ml CSF1): induced PI3K/AKT1 and ERK phosphorylation
p-AKT1 (Sup Fig.13b quantification) [2, 5]: 7.5 and 6.3 and 5.51
p-ERK (Sup Fig.13b quantification) [2, 5]: 3.68 and 4.51 and 5.3
p-PI3K (Sup Fig.13b quantification) [2, 5]: 3.62 and 4.72 and 3.2
fold induction of TAM proliferation (TAMs [3]): > 10 fold
proliferation of TAMs (TAMs [4]; 48 h): increased proliferation of TAMs in a dose-dependent manner
Number of TAMs (Fig.6a) (TAMs [4]; CSF1 10): 15.5 and 19.7 and 20.1
Number of TAMs (Fig.6a) (TAMs [4]; CSF1 50): 45.6 and 59.6 and 67.2
